Measurements taken from patent publication US20060240012A1.

Experiments:
[1] = biological target: human interleukin-6 (human) (UniProt P05231); assay: SPR (BIAcore), human IL-6 immobilised, IL6gk3-2 scFv injected at 10 to 80 nM
[2] = biological target: human interleukin-6 (human) (UniProt P05231); assay: SPR (BIAcore), purified scFv

Chain of UniProt P05231 (P05231 29-212 limits assumed): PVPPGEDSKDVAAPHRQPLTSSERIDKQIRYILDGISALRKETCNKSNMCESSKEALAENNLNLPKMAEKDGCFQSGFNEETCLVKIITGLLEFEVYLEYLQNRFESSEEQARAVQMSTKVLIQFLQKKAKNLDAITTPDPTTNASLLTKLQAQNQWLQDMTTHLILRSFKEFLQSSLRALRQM

B1: IL6gk3-2 scFv (purified soluble single chain Fv of the human anti-human IL-6 antibody clone IL6gk3-2) (scFv, part only; not given: linker and E-tag, V domains shown, not shown: another chain or arm of the molecule; small tags and cut ends)
VH: QVNLRESGGDLVKPGGSLRLSCAASGFTFRKYYMAWIRQAPGKGPEWLSTISNSGDIIDYADSVRGRFSISRDNAQKSLYLQMTSLRPDDSAIYYCAREYFFSFDVWGRGTMVTVSS
VL: DIVMTQSPSSVSASVGDRVTIFCRASQDIRNWVAWYQQKPGEAPKLLIYDGSSLQSGVPSRFSGSGSGTEFTLTISSLQPEDFATYYCQQSDSTPITFGQGTRLEIK
koff [1]: 0.0008 s⁻¹
kon [1]: 60000 M⁻¹ s⁻¹
Kd [2]: 13 nM
